This assay addresses FLAG-HA-tagged full-length wild-type TOE1 (human) (UniProt Q96GM8). Briefly: co-IP; IP-TRAP: lysates of 293T cells transiently expressing FLAG-HA-tagged proteins incubated with anti-FLAG M2 beads at 4°C for 2 h; telomerase in the eluates read by its activity (Q-TRAP).

For “active telomerase (endogenous telomerase holoenzyme of 293T cells) (from UniProt O14746 1-1132) (complex)”, the telomerase activity brought down, relative to FLAG-TCAB1 (fraction of FLAG-TCAB1) is 0.33.

The record behind these values is paper PMC6326811.
